Data on 18 molecules can be found in patent publication US20210388053A1.

Several values for one entry are separate records, joined by “and”; a condition that tells them apart may be missing. Identical values can stand only once.

For test [1], the target named is canine FcRn/B2M protein complex (canine FcRn ECD with C-terminal poly-His tag and canine Beta-2-Microglobulin) (canine). Description: SPR Biacore T200 steady state, pH 6.0, 25 C; Fc on CM5 chip, FcRn/B2M 12.5-200 nM.
The target is the same in test [2]. In words: SPR Biacore T200, pH 6.0; biotinylated FcRn/B2M immobilized, Fc as analyte. In general terms: SPR reads the build-up and loss of mass on a sensor chip optically.
The target is the same in test [3]. Description: SPR Biacore 8K, pH 6.0, 25 C; Fc captured by SASA tag on BSA chip, FcRn/B2M 400 nM as analyte.

canine FcRn/B2M protein complex (canine FcRn ECD with C-terminal poly-His tag and canine Beta-2-Microglobulin) (canine), sequence (chain, as listed by the source limits assumed, form in doubt, chain 1 of 2): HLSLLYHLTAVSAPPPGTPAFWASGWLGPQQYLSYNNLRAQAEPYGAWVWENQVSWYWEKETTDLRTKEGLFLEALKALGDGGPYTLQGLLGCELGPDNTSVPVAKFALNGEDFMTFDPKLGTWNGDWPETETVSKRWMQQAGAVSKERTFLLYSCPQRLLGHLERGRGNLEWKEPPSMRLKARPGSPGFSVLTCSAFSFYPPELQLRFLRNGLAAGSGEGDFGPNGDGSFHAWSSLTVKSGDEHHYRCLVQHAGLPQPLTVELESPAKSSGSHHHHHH
canine FcRn/B2M protein complex (canine FcRn ECD with C-terminal poly-His tag and canine Beta-2-Microglobulin) (canine), sequence (b2m, as listed by the source limits assumed, form in doubt, chain 2 of 2): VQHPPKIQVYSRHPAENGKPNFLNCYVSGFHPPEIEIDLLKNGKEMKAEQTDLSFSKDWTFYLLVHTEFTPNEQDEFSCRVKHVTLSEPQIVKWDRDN

B1: variant canine IgG-B Fc polypeptide L(24)M (protein, not shown: small tags and cut ends)
chain: CPAPEMLGGPSVFIFPPKPKDTLMIARTPEVTCVVVDLDPEDPEVQISWFVDGKQMQTAKTQPREEQFNGTYRVVSVLPIGHQDWLKGKQFTCKVNNKALPSPIERTISKARGQAHQPSVYVLPPSREELSKNTVSLTCLIKDFFPPDIDVEWQSNGQQEPESKYRTTPPQLDEDGSYFLYSKLSVDKSRWQRGDTFICAVMHEALHNHYTQESLSHSPGK
Usually Kd stands for the equilibrium constant for the complex coming apart. A lower Kd goes with a tighter complex. Broadly, the koff is the rate constant with which the complex falls apart. In test [1], B1 yielded a Kd of 406 nM. In test [2], this molecule had a koff of 0.126 s⁻¹.

B2: variant canine IgG-B Fc polypeptide Y0F (Leu24Tyr, Asn208Phe) (protein, not shown: small tags and cut ends)
chain: CPAPEMLGGPSVFIFPPKPKDTLYIARTPEVTCVVVDLDPEDPEVQISWFVDGKQMQTAKTQPREEQFNGTYRVVSVLPIGHQDWLKGKQFTCKVNNKALPSPIERTISKARGQAHQPSVYVLPPSREELSKNTVSLTCLIKDFFPPDIDVEWQSNGQQEPESKYRTTPPQLDEDGSYFLYSKLSVDKSRWQRGDTFICAVMHEALHFHYTQESLSHSPGK
Usually kon stands for the second-order rate constant of association. Higher therefore signals fast association. As for B2, in test [3], the Kd came out at 0.787 nM, the koff came to 0.000221 s⁻¹ and the kon turned out to be 281000 M⁻¹ s⁻¹.

B3: variant canine IgG-B Fc polypeptide Y0Y (Leu24Tyr, Asn208Tyr) (protein, not shown: small tags and cut ends)
chain: CPAPEMLGGPSVFIFPPKPKDTLYIARTPEVTCVVVDLDPEDPEVQISWFVDGKQMQTAKTQPREEQFNGTYRVVSVLPIGHQDWLKGKQFTCKVNNKALPSPIERTISKARGQAHQPSVYVLPPSREELSKNTVSLTCLIKDFFPPDIDVEWQSNGQQEPESKYRTTPPQLDEDGSYFLYSKLSVDKSRWQRGDTFICAVMHEALHYHYTQESLSHSPGK
Consider B3, for which, in test [3], the Kd was 0.49 nM, the koff was found to be 0.00014 s⁻¹ and the on-rate constant (kon) stood at 286000 M⁻¹ s⁻¹.

B4: variant canine IgG-B Fc polypeptide 0YF (Gln83Tyr, Asn208Phe) (protein, not shown: small tags and cut ends)
chain: CPAPEMLGGPSVFIFPPKPKDTLLIARTPEVTCVVVDLDPEDPEVQISWFVDGKQMQTAKTQPREEQFNGTYRVVSVLPIGHYDWLKGKQFTCKVNNKALPSPIERTISKARGQAHQPSVYVLPPSREELSKNTVSLTCLIKDFFPPDIDVEWQSNGQQEPESKYRTTPPQLDEDGSYFLYSKLSVDKSRWQRGDTFICAVMHEALHFHYTQESLSHSPGK
Turning to B4, in test [3], the Kd is 3.1 nM, the koff stood at 0.00118 s⁻¹ and the kon was 380000 M⁻¹ s⁻¹.

B5: variant canine IgG-B Fc polypeptide YYH (Leu24Tyr, Gln83Tyr, Asn208His) (protein, not shown: small tags and cut ends)
chain: CPAPEMLGGPSVFIFPPKPKDTLYIARTPEVTCVVVDLDPEDPEVQISWFVDGKQMQTAKTQPREEQFNGTYRVVSVLPIGHYDWLKGKQFTCKVNNKALPSPIERTISKARGQAHQPSVYVLPPSREELSKNTVSLTCLIKDFFPPDIDVEWQSNGQQEPESKYRTTPPQLDEDGSYFLYSKLSVDKSRWQRGDTFICAVMHEALHHHYTQESLSHSPGK
Turning to B5, in test [3], the Kd was 1.7 nM, the koff was 0.000612 s⁻¹ and the kon is 360000 M⁻¹ s⁻¹.

B6: variant canine IgG-B Fc polypeptide Y0R (Leu24Tyr, Asn208Arg) (protein, not shown: small tags and cut ends)
chain: CPAPEMLGGPSVFIFPPKPKDTLYIARTPEVTCVVVDLDPEDPEVQISWFVDGKQMQTAKTQPREEQFNGTYRVVSVLPIGHQDWLKGKQFTCKVNNKALPSPIERTISKARGQAHQPSVYVLPPSREELSKNTVSLTCLIKDFFPPDIDVEWQSNGQQEPESKYRTTPPQLDEDGSYFLYSKLSVDKSRWQRGDTFICAVMHEALHRHYTQESLSHSPGK
In the case of B6, in test [3], the Kd is 8.64 nM, the koff stood at 0.00295 s⁻¹ and the kon is 341000 M⁻¹ s⁻¹.

B7: variant canine IgG-B Fc polypeptide Y0H (Leu24Tyr, Asn208His) (protein, not shown: small tags and cut ends)
chain: CPAPEMLGGPSVFIFPPKPKDTLYIARTPEVTCVVVDLDPEDPEVQISWFVDGKQMQTAKTQPREEQFNGTYRVVSVLPIGHQDWLKGKQFTCKVNNKALPSPIERTISKARGQAHQPSVYVLPPSREELSKNTVSLTCLIKDFFPPDIDVEWQSNGQQEPESKYRTTPPQLDEDGSYFLYSKLSVDKSRWQRGDTFICAVMHEALHHHYTQESLSHSPGK
For the molecule B7, in test [3], the Kd stood at 8.11 nM, the koff turned out to be 0.00271 s⁻¹ and the kon was 334000 M⁻¹ s⁻¹.

B8: variant canine IgG-B Fc polypeptide 0YR (Gln83Tyr, Asn208Arg) (protein, not shown: small tags and cut ends)
chain: CPAPEMLGGPSVFIFPPKPKDTLLIARTPEVTCVVVDLDPEDPEVQISWFVDGKQMQTAKTQPREEQFNGTYRVVSVLPIGHYDWLKGKQFTCKVNNKALPSPIERTISKARGQAHQPSVYVLPPSREELSKNTVSLTCLIKDFFPPDIDVEWQSNGQQEPESKYRTTPPQLDEDGSYFLYSKLSVDKSRWQRGDTFICAVMHEALHRHYTQESLSHSPGK
In test [3], B8 showed a Kd of 9.45 nM, a koff of 0.00655 s⁻¹ and a kon of 693000 M⁻¹ s⁻¹.

B9: variant canine IgG-B Fc polypeptide L(24)Y (protein, not shown: small tags and cut ends)
chain: CPAPEMLGGPSVFIFPPKPKDTLYIARTPEVTCVVVDLDPEDPEVQISWFVDGKQMQTAKTQPREEQFNGTYRVVSVLPIGHQDWLKGKQFTCKVNNKALPSPIERTISKARGQAHQPSVYVLPPSREELSKNTVSLTCLIKDFFPPDIDVEWQSNGQQEPESKYRTTPPQLDEDGSYFLYSKLSVDKSRWQRGDTFICAVMHEALHNHYTQESLSHSPGK
For B9, the Kd in test [1] came out at 113 nM. The same molecule came in with a koff in test [2] of 0.0138 s⁻¹.

B10: YTE variant canine IgG-B Fc polypeptide (Leu24Tyr, Ala26Thr, Thr28Glu) (protein, not shown: small tags and cut ends)
chain: CPAPEMLGGPSVFIFPPKPKDTLYITREPEVTCVVVDLDPEDPEVQISWFVDGKQMQTAKTQPREEQFNGTYRVVSVLPIGHQDWLKGKQFTCKVNNKALPSPIERTISKARGQAHQPSVYVLPPSREELSKNTVSLTCLIKDFFPPDIDVEWQSNGQQEPESKYRTTPPQLDEDGSYFLYSKLSVDKSRWQRGDTFICAVMHEALHNHYTQESLSHSPGK
In test [3], B10 came in with a Kd of 31 nM, a koff of 0.0205 s⁻¹ and a kon of 662000 M⁻¹ s⁻¹. This molecule had a Kd in test [1] of 86.2 nM.

B11: variant canine IgG-B Fc polypeptide L(24)S (protein, not shown: small tags and cut ends)
chain: CPAPEMLGGPSVFIFPPKPKDTLSIARTPEVTCVVVDLDPEDPEVQISWFVDGKQMQTAKTQPREEQFNGTYRVVSVLPIGHQDWLKGKQFTCKVNNKALPSPIERTISKARGQAHQPSVYVLPPSREELSKNTVSLTCLIKDFFPPDIDVEWQSNGQQEPESKYRTTPPQLDEDGSYFLYSKLSVDKSRWQRGDTFICAVMHEALHNHYTQESLSHSPGK
In test [2], B11 had a koff of 0.241 s⁻¹.

B12: variant canine IgG-B Fc polypeptide L(24)F (protein, not shown: small tags and cut ends)
chain: CPAPEMLGGPSVFIFPPKPKDTLFIARTPEVTCVVVDLDPEDPEVQISWFVDGKQMQTAKTQPREEQFNGTYRVVSVLPIGHQDWLKGKQFTCKVNNKALPSPIERTISKARGQAHQPSVYVLPPSREELSKNTVSLTCLIKDFFPPDIDVEWQSNGQQEPESKYRTTPPQLDEDGSYFLYSKLSVDKSRWQRGDTFICAVMHEALHNHYTQESLSHSPGK
In turn, B12 showed a Kd in test [1] of 367 nM. Further, the koff in test [2] is 0.0631 s⁻¹ and 0.0847 s⁻¹.

B13: variant canine IgG-B Fc polypeptide 0YW (Gln83Tyr, Asn208Trp) (protein, not shown: small tags and cut ends)
chain: CPAPEMLGGPSVFIFPPKPKDTLLIARTPEVTCVVVDLDPEDPEVQISWFVDGKQMQTAKTQPREEQFNGTYRVVSVLPIGHYDWLKGKQFTCKVNNKALPSPIERTISKARGQAHQPSVYVLPPSREELSKNTVSLTCLIKDFFPPDIDVEWQSNGQQEPESKYRTTPPQLDEDGSYFLYSKLSVDKSRWQRGDTFICAVMHEALHWHYTQESLSHSPGK
Consider B13, for which, in test [3], the Kd came out at 6.1 nM, the koff turned out to be 0.00213 s⁻¹ and the kon was found to be 348000 M⁻¹ s⁻¹.

B14: variant canine IgG-B Fc polypeptide 0YY (Gln83Tyr, Asn208Tyr) (protein, not shown: small tags and cut ends)
chain: CPAPEMLGGPSVFIFPPKPKDTLLIARTPEVTCVVVDLDPEDPEVQISWFVDGKQMQTAKTQPREEQFNGTYRVVSVLPIGHYDWLKGKQFTCKVNNKALPSPIERTISKARGQAHQPSVYVLPPSREELSKNTVSLTCLIKDFFPPDIDVEWQSNGQQEPESKYRTTPPQLDEDGSYFLYSKLSVDKSRWQRGDTFICAVMHEALHYHYTQESLSHSPGK
In test [3], B14 came in with a Kd of 2.03 nM, a koff of 0.00086 s⁻¹ and a kon of 425000 M⁻¹ s⁻¹.

B15: variant canine IgG-B Fc polypeptide Y0W (Leu24Tyr, Asn208Trp) (protein, not shown: small tags and cut ends)
chain: CPAPEMLGGPSVFIFPPKPKDTLYIARTPEVTCVVVDLDPEDPEVQISWFVDGKQMQTAKTQPREEQFNGTYRVVSVLPIGHQDWLKGKQFTCKVNNKALPSPIERTISKARGQAHQPSVYVLPPSREELSKNTVSLTCLIKDFFPPDIDVEWQSNGQQEPESKYRTTPPQLDEDGSYFLYSKLSVDKSRWQRGDTFICAVMHEALHWHYTQESLSHSPGK
In test [3], B15 yielded a Kd of 3.72 nM, a koff of 0.000929 s⁻¹ and a kon of 250000 M⁻¹ s⁻¹.

B16: variant canine IgG-B Fc polypeptide 0YH (Gln83Tyr, Asn208His) (protein, not shown: small tags and cut ends)
chain: CPAPEMLGGPSVFIFPPKPKDTLLIARTPEVTCVVVDLDPEDPEVQISWFVDGKQMQTAKTQPREEQFNGTYRVVSVLPIGHYDWLKGKQFTCKVNNKALPSPIERTISKARGQAHQPSVYVLPPSREELSKNTVSLTCLIKDFFPPDIDVEWQSNGQQEPESKYRTTPPQLDEDGSYFLYSKLSVDKSRWQRGDTFICAVMHEALHHHYTQESLSHSPGK
In test [3], B16 displayed a Kd of 11.8 nM, a koff of 0.00791 s⁻¹ and a kon of 673000 M⁻¹ s⁻¹.

B17: variant canine IgG-B Fc polypeptide YYR (Leu24Tyr, Gln83Tyr, Asn208Arg) (protein, not shown: small tags and cut ends)
chain: CPAPEMLGGPSVFIFPPKPKDTLYIARTPEVTCVVVDLDPEDPEVQISWFVDGKQMQTAKTQPREEQFNGTYRVVSVLPIGHYDWLKGKQFTCKVNNKALPSPIERTISKARGQAHQPSVYVLPPSREELSKNTVSLTCLIKDFFPPDIDVEWQSNGQQEPESKYRTTPPQLDEDGSYFLYSKLSVDKSRWQRGDTFICAVMHEALHRHYTQESLSHSPGK
In test [3], B17 returned a Kd of 1.84 nM, a koff of 0.000638 s⁻¹ and a kon of 347000 M⁻¹ s⁻¹.

B18: variant canine IgG-B Fc polypeptide YYW (Leu24Tyr, Gln83Tyr, Asn208Trp) (protein, not shown: small tags and cut ends)
chain: CPAPEMLGGPSVFIFPPKPKDTLYIARTPEVTCVVVDLDPEDPEVQISWFVDGKQMQTAKTQPREEQFNGTYRVVSVLPIGHYDWLKGKQFTCKVNNKALPSPIERTISKARGQAHQPSVYVLPPSREELSKNTVSLTCLIKDFFPPDIDVEWQSNGQQEPESKYRTTPPQLDEDGSYFLYSKLSVDKSRWQRGDTFICAVMHEALHWHYTQESLSHSPGK
In test [3], B18 had a Kd of 1.93 nM, a koff of 0.000496 s⁻¹ and a kon of 256000 M⁻¹ s⁻¹.
